Like-named read-outs stand apart in the source and are kept apart here. Blank lines part the entries; values can stand above or below the binder they belong to.
Tests used:
[1] = target: T1, human MSLN-FL-his protein (human, UniProt Q13421 296-580); assay: competitive ELISA; row Tab142
T1 construct: made in HEK293E cells, purified on nickel column; also called hMSLN-FL-his; human MSLN full-length protein; not shown: His tag

[2] = target: T1, human MSLN-FL-his protein; assay: competitive ELISA; row F7.2.3
[3] = target: T1, human MSLN-FL-his protein; assay: SPR (Biacore), antibody captured on Protein A chip;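 also: flow cell at 25 °C, antigen injected for 240 s at five concentrations from 200 nM downward, dissociation followed up to 600 s, double-referenced, fitted with Langmuir 1:1 model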
[4] = target: T1, human MSLN-FL-his protein; assay: competitive ELISA; row F7.18.10
[5] = target: T1, human MSLN-FL-his protein; assay: competitive ELISA; row Tab021
human MSLN-R3 protein [6] = target: T2, human MSLN-R3 protein (human, UniProt Q13421 487-598); assay: ELISA, MSLN-R3 coated, antibody 0.0001 nM
T2 construct: also called hMSLN-R3
T2 sequence (Q13421 495-606): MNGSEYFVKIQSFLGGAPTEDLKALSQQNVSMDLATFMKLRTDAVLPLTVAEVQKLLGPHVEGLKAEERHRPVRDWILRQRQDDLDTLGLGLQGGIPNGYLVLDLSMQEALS

human MSLN-R3 protein [7] = target: T2, human MSLN-R3 protein; assay: ELISA, MSLN-R3 coated, antibody 0.001 nM
[8] = target: T3, human MSLN-R3 on HEK293T-hMSLN-R3 recombinant cells (human, UniProt Q13421 487-606); assay: FACS, HEK293T-hMSLN-R3 cells
T3 construct: the C-terminal limit is uncertain; also called human MSLN-R3 membrane protein
T3 sequence (Q13421 495-614): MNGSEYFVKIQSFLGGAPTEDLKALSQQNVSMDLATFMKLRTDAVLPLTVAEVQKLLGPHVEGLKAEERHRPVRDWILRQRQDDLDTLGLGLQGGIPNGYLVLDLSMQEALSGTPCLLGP

[9] = target: T3, human MSLN-R3 on HEK293T-hMSLN-R3 …; assay: FACS, HEK293T-hMSLN-R3 cells; remark: listed apart in the source
[10] = target: T3, human MSLN-R3 on HEK293T-hMSLN-R3 …; assay: FACS, HEK293T-hMSLN-R3 cells; remark: listed apart in the source
human MSLN-R3 protein [11] = target: T2, human MSLN-R3 protein; assay: ELISA, MSLN-R3 coated, antibody 0.1 nM
[12] = target: T3, human MSLN-R3 on HEK293T-hMSLN-R3 …; assay: FACS, HEK293T-hMSLN-R3 cells; remark: listed apart in the source
human MSLN-R3 protein [13] = target: T2, human MSLN-R3 protein; assay: ELISA, MSLN-R3 coated, antibody 100 nM
[14] = target: T3, human MSLN-R3 on HEK293T-hMSLN-R3 …; assay: FACS, HEK293T-hMSLN-R3 cells; remark: listed apart in the source
human MSLN-R3 protein [15] = target: T2, human MSLN-R3 protein; assay: ELISA, MSLN-R3 coated, antibody 10 nM
human MSLN-R3 protein [16] = target: T2, human MSLN-R3 protein; assay: ELISA, MSLN-R3 coated, antibody 0.01 nM
human MSLN-R3 protein [17] = target: T2, human MSLN-R3 protein; assay: ELISA, MSLN-R3 coated, antibody 1 nM
[18] = target: T4, human MSLN-FL-his protein (human, UniProt Q13421 296-580); assay: SPR (Biacore), antibody captured on Protein A, MSLN-FL-his injected
T4 construct: also called hMSLN-FL-his; human MSLN full-length protein

[19] = target: human MSLN on OVCAR3 tumor cells (human, UniProt Q13421 296-598); assay: FACS, OVCAR3 cells
Sequence of human MSLN on OVCAR3 tumor cells (Q13421 other isoform, or with tags, fused parts or gaps): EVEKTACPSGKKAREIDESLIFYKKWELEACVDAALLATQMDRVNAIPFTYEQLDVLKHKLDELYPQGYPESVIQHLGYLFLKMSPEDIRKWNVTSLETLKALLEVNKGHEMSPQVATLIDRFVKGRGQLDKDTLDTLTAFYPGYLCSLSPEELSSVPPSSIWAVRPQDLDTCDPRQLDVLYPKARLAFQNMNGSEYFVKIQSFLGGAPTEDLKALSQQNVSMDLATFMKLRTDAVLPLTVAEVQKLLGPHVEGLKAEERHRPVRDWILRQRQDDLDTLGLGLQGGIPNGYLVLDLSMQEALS

[20] = target: T5, monkey MSLN on HEK293T-monkey MSLN recombinant cells (monkey); assay: FACS, HEK293T-monkey MSLN cells
T5 construct: Full-length precursor as transfected; processing on the cell is not described; also called HEK293-monkey MSLN
T5 chain: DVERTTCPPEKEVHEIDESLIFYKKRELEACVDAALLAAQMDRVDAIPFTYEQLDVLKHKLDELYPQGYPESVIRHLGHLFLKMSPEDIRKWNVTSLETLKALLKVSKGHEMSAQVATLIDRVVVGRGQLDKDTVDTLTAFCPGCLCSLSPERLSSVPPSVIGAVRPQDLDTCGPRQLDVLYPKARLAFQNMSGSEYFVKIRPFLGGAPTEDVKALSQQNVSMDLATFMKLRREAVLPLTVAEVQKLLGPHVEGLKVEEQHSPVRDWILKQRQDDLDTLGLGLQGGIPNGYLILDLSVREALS

[21] = target: T6, human MSLN-hFc protein (Acro, Cat. No. MSN-H5253) (human, UniProt Q13421 296-580); assay: ELISA, coated human MSLN-hFc
T6 construct: bought
T6 sequence (Q13421 other isoform, or with tags, fused parts or gaps limits assumed): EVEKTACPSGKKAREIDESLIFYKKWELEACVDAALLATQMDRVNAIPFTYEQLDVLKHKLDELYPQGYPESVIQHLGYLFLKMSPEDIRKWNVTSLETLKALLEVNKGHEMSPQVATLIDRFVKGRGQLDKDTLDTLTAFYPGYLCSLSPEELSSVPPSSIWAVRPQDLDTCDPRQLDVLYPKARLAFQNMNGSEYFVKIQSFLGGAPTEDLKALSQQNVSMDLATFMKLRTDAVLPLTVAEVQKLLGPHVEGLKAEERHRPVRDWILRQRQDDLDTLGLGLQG

competition rate [1]: 3.48% | competition rate [2]: 93.3% | Kd [3]: 13.2 nM | koff [3]: 0.00851 s⁻¹ | kon [3]: 643000 M⁻¹ s⁻¹ | competition rate [4]: 54.1% | competition rate [5]: -3.83%
B1: S009-F7.2.3 (antibody, human IgG1, kappa, V domains shown)
VH: ELQLVESGGDLVKPGGSLKLSCAASGFTFSSNGMSWLRQTPDKRLEWVATISSGGRYTYYPDSVKGRFTISRDNAKNTLYLQMSSLKSEDTAMYYCARRGIYDYFDCWGQGTTLTVSS
VL: DIQMTQSPASLSISVGETVTITCRASENIHSSLAWYQQKQGKSPQLLVYAATNLADGVPSRFSGSGSGSQYSLKINSLQSEDFGTYYCQHFWGTPWTFGGGTKLDIKR
notes: human-murine chimeric antibody, human IgG1/kappa constant regions

competition rate [1]: 94.4% | competition rate [2]: -29.4% | Kd [3]: 0.64 nM | koff [3]: 0.00117 s⁻¹ | kon [3]: 1.83e+06 M⁻¹ s⁻¹ | competition rate [4]: 97% | competition rate [5]: 9.2%
B2: S009-F7.18.10 (antibody, human IgG1, kappa, V domains shown)
VH: QVQLQQSGAELVRPGTSVKVSCKASGYAFTNYLIEWVKQRPGQGLEWIGVINPGSGGTKYNEKFKGKATLTADKSSSTAYMQLSSLTSEDSAVYFCASDYDYDPFAYWGQGTLVTVSA
VL: DIVMTQSHKFMSTSVGDRVSITCKASQDVSTAVAWYQRKPGQSPKLLIYWASTRHTGVPDRFTGSGSGTDYTLTISYMQAEDLALYYCQQHYSTPYTFGGGTKLEIKR
notes: as for B1

OD450 nm (human MSLN-R3 protein [6]): 0.05 OD | OD450 nm (human MSLN-R3 protein [7]): 0.05 OD | EC50 [8]: 1.22 nM | Maximum_MFI [8]: 4970 MFI | EC50 [9]: 0.76 nM | Maximum_MFI [9]: 2120 MFI | EC50 [10]: 1.6 nM | Maximum_MFI [10]: 3070 MFI | OD450 nm (human MSLN-R3 protein [11]): 0.07 OD | EC50 [12]: 30.2 nM | Maximum_MFI [12]: 777 MFI | OD450 nm (human MSLN-R3 protein [13]): 1.89 OD | EC50 [14]: 0.76 nM | Maximum_MFI [14]: 2120 MFI | OD450 nm (human MSLN-R3 protein [15]): 1.05 OD | OD450 nm (human MSLN-R3 protein [16]): 0.05 OD | OD450 nm (human MSLN-R3 protein [17]): 0.25 OD
B3: Tab111 (scFv, not shown: small tags and cut ends)
scFv: DVVMTQTPASVSEPVGGTVTIKCQASQRISSYLSWYQQKPGQRPKLLIFGASTLASGVPSRFKGSGSGTEYTLTISDLECADAATYYCQSYAYFDSNNWHAFGGGTEVVVGGGGSGGGGSGGGGSQQQLEESGGGLVKPEGSLTLTCKASGFDLGFYFYACWVRQAPGKGLEWIACIYTAGSGSTYYASWAKGRFTISKASSTTVTLQMTSLAAADTATYFCARSTANTRSTYYLNLWGPGTLVTVSS
notes: also called YP218 VL-(G4S)3-VH-his antibody; positive control

binding result [18]: no binding
B4: S009-F3.7.3 (antibody, human IgG1, kappa, V domains shown)
VH: EVNFEESGGGLVQPGGSMKLSCVASGFTFSNYWMNWVRQSPEKGLEWVAQIRLKSDNYATHYAESVKGRFTISRDDFKSSVYLQMNNLRAEDTGIYYCTVGTGGYWGQGTTLTVSS
VL: DIVLTQSPASLAMSLGKRATISCRASESVSIVGTNVIHWFQQKPGQPPKLLIYHASNLETGVPARFSGSGSGTDFTLTIDPVEEDDVAIYHCLQSRKIPWTFGGGTKLEIKR
notes: chimeric, human IgG1/kappa

binding result [18]: no binding
B5: S009-F3.16.1 (antibody, human IgG1, kappa, V domains shown)
VH: EVKFEESGGGLVQPGGSMKLSCVASGFTFSNYWMNWVRQSPEKGLEWVAQIRLKSDNYATHYAESVKGRFSISRDDSKSSVYLQMNNLRAEDTGIYYCSVGTGGYWGQGTTLTVSS
VL: DIVLTQSPASLALSPGKRATISCRASESVSIIGTDVIHWFQQKPGQPPKLLIYHASNLETGVPARFSGSGSRTDFTLTIDPVEEDDVAIYYCLQSRKIPWTFGGGTKLEIKR
notes: chimeric, human IgG1/kappa

EC50 [14]: 1.63 nM | Maximum_MFI [14]: 1490 MFI | EC50 [19]: 4.75 nM | Maximum_MFI [19]: 2260 MFI | EC50 [20]: 7.97 nM | Maximum_MFI [20]: 8910 MFI
B6: F7.33.24 (scFv)
chain: QVQLQQPGTELVKPGASVKLSCKASGYTFTSYWMHWVKQRPGQGLEWIGNVNPSNGGSNYNEKFKNKATLTVDKSSSTADMQLNSLTSEDSAVYYCAPHYIGSRPGFAYWGQGTLVTVSGGGGGSGGGGSGGGGSDIVMTQSQKFMSTSVGDRVSVTCKASQNVGTNIAWYQQKPGQSPKALIYSASYRYSGVPDRFTGSGSGTDFTLTITNVQSEDLAEYFCQQYNSYPLTFGGGTKVEIK

OD450 nm (human MSLN-R3 protein [6]): 0.05 OD | OD450 nm (human MSLN-R3 protein [7]): 0.05 OD | OD450 nm (human MSLN-R3 protein [11]): 0.06 OD | EC50 [12]: 166 nM | Maximum_MFI [12]: 795 MFI | OD450 nm (human MSLN-R3 protein [13]): 1.88 OD | OD450 nm (human MSLN-R3 protein [15]): 0.72 OD | OD450 nm (human MSLN-R3 protein [16]): 0.05 OD | OD450 nm (human MSLN-R3 protein [17]): 0.12 OD
B7: F3.38.10-L2H3a (scFv, not shown: small tags and cut ends)
scFv: DIVMTQSPDSLAVSLGERATINCRSSQSLIHSDGNTYLQWYQQKPGQSPKLLIYKVSNRFSGVPDRFSGSGSGTDFTLTISSLQAEDVAVYYCSQTTHVPFTFGQGTKLEIKGGGGSGGGGSGGGGSEVQLVQSGAEVKKPGASVKVSCKASGYIFTDYYMNWVRQAPGQRLEWMGVINPKQGVISHNQKFKGRVTITVDKSANTAYMELSSLRSEDTAVYYCANYGSRFYAMDYWGQGTTVTVSS
notes: also called S009-F3.38.10 humanized antibody VL2 + VH3a

binding result [21]: no binding (tested: up to 100 nM)
B8: F3.38.10-L2H3a (scFv, not shown: small tags and cut ends)
scFv: DIVMTQSPDSLAVSLGERATINCRSSQSLIHSDGNTYLQWYQQKPGQSPKLLIYKVSNRFSGVPDRFSGSGSGTDFTLTISSLQAEDVAVYYCSQTTHVPFTFGQGTKLEIKGGGGSGGGGSGGGGSEVQLVQSGAEVKKPGASVKVSCKASGYIFTDYYMNWVRQAPGQRLEWMGVINPKQGVISHNQKFKGRVTITVDKSANTAYMELSSLRSEDTAVYYCANYGSRFYAMDYWGQGTTVTVSS

binding result [21]: no binding (tested: up to 100 nM)
B9: F3.38.10-L1H5 (scFv, not shown: small tags and cut ends)
scFv: DIVMTQTPLSLPVTPGEPASISCRSSQSLIHSDGNTYLQWYLQKPGQSPQLLIYKVSNRFSGVPDRFSGSGSGTDFTLKISRVEAEDVGVYYCSQTTHVPFTFGQGTKLEIKGGGGSGGGGSGGGGSEVQLVQSGAEVKKPGASVKVSCKASGYIFTDYYMNWVRQAHGQRLEWMGVINPKNGVISHNQKFKGRVTITVDKSANTAYMELSSLRSEDTAVYYCANYGSRFYAMDYWGQGTTVTVSS

Reference: patent publication US20250250357A1 (NANJING ZAIMING PHARMACEUTICAL, published 2025)
